Biological target: the molecule itself
Test: SEC-SAXS

B1: CVS wt P3, recombinant (rabies virus CVS-11 phosphoprotein, residues 53-297) (natural protein)
chain: MKRLHLDDEKSSNLGEMVRVGEGKYREDFQMDEGEDPNLLFQSYLDNVGVQIVRQMRSGERFLKIWSQTVEEIVSYVTVNFPNPPRRSSEDKSTQTTGRELKKETTSAFSQRESQPSKARMVAQVAPGPPALEWSATNEEDDLSVEAEIAHQIAESFSKKYKFPSRSSGIFLYNFEQLKMNLDDIVKEAKNVPGVTRLAHDGSKIPLRCVLGWVALANSKKFQLLVEADKLSKIMQDDLNRYTSC
stoichiometry N: 2

From PMC12589655 (Nature Communications, 2025)
